Self-cleavage data for 167 variants are collected here from the RNAGym collection of RNA variant scans (doi:10.7554/elife.80360).

The chains are these.
B1: Hammerhead Ribozyme (parent)
chain: ACCGGAUGUGCUUUCCGGUCUGAUGAGUCCGUGAGGACGAAACAG

The variants in the data set derive from B1. The data set is described as follows: self-cleavage, relative activity (ratio to wild type); higher = more cleavage; co-transcriptional.
Turning to U28A G33A, the self-cleavage is 0.829. Regarding G36C A37C, the self-cleavage is 0.296. The value for A37C A42U was 0.27.

As for A23C G27U, the self-cleavage amounted to 0.256. As to G18C G35U, the self-cleavage is 0.399. For U7G C15U, the self-cleavage turned out to be 1.26. The value for G18A G45C was 0.446. For the variant U7C G8A, the self-cleavage was found to be 0.95. Consider G10C G35C, for which the self-cleavage worked out at 0.497. With C20G A41U, the self-cleavage worked out at 0.371.

For the variant C2U U32A, the self-cleavage is 0.97. In the case of C20G A34G, the self-cleavage was 0.245. The same measure for G27A C38G: 0.623; for U28C A37U: 0.772. The same measure for G39C G45A: 0.359; for C30U C43G: 0.343; for C30U C43U: 0.546. As for U13G U14A, the self-cleavage worked out at 0.428. For U21G U24C, the self-cleavage is 0.391. Take G27C A34U: the self-cleavage was found to be 0.436.

Regarding G4C U13A, the self-cleavage is 1.04. The same measure for U14G G39U: 0.359. With U13C G35C, the self-cleavage was found to be 0.774. The same measure for G33U A37G: 1.04; for C15A C43G: 0.337. Regarding A23C A26U, the self-cleavage was 0.33.

On to C11U C20G, for which the self-cleavage was 0.327. The value for C20G A23C was 0.271. U13A A23U: the self-cleavage was 0.361. Consider U12A U24C, for which the self-cleavage was 0.727. The same measure for U14G C16U: 0.849; for U13G C20A: 0.374; for U13G A41U: 0.272. Turning to U32A A41C, the self-cleavage came out at 0.347. The value for A1C A37U was 0.34; that for C11G G36A was 0.763; that for A37U A44U was 0.417. Consider G31U G39U, for which the self-cleavage was determined as 0.353.

Regarding G10C U21A, the self-cleavage stood at 0.533. Regarding C3A U7C, the self-cleavage was determined as 0.386. For the variant U14G A44C, the self-cleavage amounted to 0.681. U14G A44U: the self-cleavage came out at 0.609. Turning to G5U A42U, the self-cleavage was found to be 0.323.

As to U9C G45U, the self-cleavage was 0.591.

For the variant C29G G36C, the self-cleavage was 0.799. For the variant C2A A40C, the self-cleavage was 0.353.

Turning to U14A C38U, the self-cleavage came out at 0.926.

In the case of G18U A34C, the self-cleavage came out at 0.407. With G8C A34U, the self-cleavage is 0.988.

As for G5A G33A, the self-cleavage was 1.44. The same measure for G10A G45U: 0.767.

As to C2U G5U, the self-cleavage was determined as 0.535. For the variant U14G A40G, the self-cleavage turned out to be 0.366. Turning to G31A A40U, the self-cleavage was found to be 0.297.

Turning to C29A A42U, the self-cleavage worked out at 0.374.

U14A C16U: the self-cleavage amounted to 0.798. Take A1G U12A: the self-cleavage is 1.63.

G35U G39A: the self-cleavage came out at 0.331. As for G27A G35U, the self-cleavage came to 0.411.

On to A6U U28G, for which the self-cleavage worked out at 0.373. As to U24A C38A, the self-cleavage worked out at 0.696. Take G8C C38A: the self-cleavage came to 0.8.

U19C U28C: the self-cleavage was 0.572. For G31C A34U, the self-cleavage is 0.68. The same measure for C11A A44C: 0.569. The value for U19A G45U was 0.41; that for A1G U24G was 1.68. With U21G, the self-cleavage came to 0.706.

U21G A37G: the self-cleavage turned out to be 0.454. As for G4C G10A, the self-cleavage came out at 0.662. For G36A G45C, the self-cleavage is 0.422.

In the case of U9C U14G, the self-cleavage amounted to 1.29. As to G4A A23G, the self-cleavage turned out to be 0.272. For C2U G8U, the self-cleavage was 0.948. Consider U19C A41U, for which the self-cleavage turned out to be 0.271. For U7A U13C, the self-cleavage amounted to 1.43. In the case of U7A U13G, the self-cleavage came out at 1.29. For A6U G45U, the self-cleavage stood at 0.468. Consider A6U G45A, for which the self-cleavage was determined as 0.536. With G27U A37G, the self-cleavage was 0.501.

As to U19G G22A, the self-cleavage was 0.394. The same measure for C15U U24G: 1.35. C20U A34G: the self-cleavage was determined as 0.407. The value for G17C C43A was 0.319; that for U9G G10U was 1.05. With G18C G39C, the self-cleavage is 0.289. The value for G17C C38A was 0.451; that for A37G C43A was 0.332. The same measure for G18U U32C: 0.857; for C38G A44G: 0.833; for C3G G8U: 0.656. Turning to U7G G10A, the self-cleavage is 1.72. Take C2U U9A: the self-cleavage was found to be 1.24. The value for G17A G36A was 0.442. Regarding G5C U28G, the self-cleavage was determined as 0.345. The value for C16U G45C was 0.921; that for U9C U12A was 1.15. Consider U9G G22C, for which the self-cleavage is 0.399. Take G31C C43G: the self-cleavage came out at 0.34. In the case of G18C A44C, the self-cleavage came to 0.435. G18C A44G: the self-cleavage is 0.643. On to G18U A44U, for which the self-cleavage worked out at 0.368. The value for A34U A44C was 0.447. In the case of U32A G35A, the self-cleavage amounted to 0.75.

On to C16G A34C, for which the self-cleavage was determined as 0.647. The value for U32A A37C was 0.936; that for U19C A42C was 0.237.

Take G8A U21C: the self-cleavage turned out to be 0.742.

U19C G36U: the self-cleavage worked out at 0.443.

As for C16U A41U, the self-cleavage came out at 0.264. In the case of U13G G22C, the self-cleavage is 0.315. Consider U13A C38U, for which the self-cleavage stood at 1.5. The same measure for U9C G17A: 0.754.

In the case of G35U C43U, the self-cleavage worked out at 0.43. As to C2G U12C, the self-cleavage came out at 0.342. A41U A44G: the self-cleavage was determined as 0.759. For U24A G36A, the self-cleavage came out at 0.669. As to G4A G22A, the self-cleavage worked out at 0.281.

With A6G A37G, the self-cleavage came to 0.674. As for C16A C38G, the self-cleavage was found to be 0.542.

As for G33A A44C, the self-cleavage is 0.673.

On to G17U C38A, for which the self-cleavage is 0.465.

Turning to C29G C30G, the self-cleavage is 0.476.

As for A6C C15U, the self-cleavage came to 0.659. On to G18U, for which the self-cleavage was determined as 0.875. Take G18A: the self-cleavage came to 0.831. A6U A40U: the self-cleavage came out at 0.351.

With G5C U12A, the self-cleavage was found to be 0.788. Turning to C30G G31U, the self-cleavage amounted to 0.88. The same measure for G4A C20G: 0.334; for C3G G4A: 0.283. In the case of G18C C43G, the self-cleavage was 0.358. C11A A41U: the self-cleavage amounted to 0.273. Turning to G36U A40C, the self-cleavage came out at 0.43.

As to G18C G25C, the self-cleavage was determined as 0.347.

With C3A C11U, the self-cleavage was found to be 0.358. The same measure for U21G A42C: 0.393; for U12C U21C: 0.792. The value for G22C C38A was 0.329; that for A6U G36A was 0.44; that for G17U U24A was 0.781. Consider G36A C43A, for which the self-cleavage came to 0.383. Regarding A1G C3U, the self-cleavage was 1.34. On to G22C A41G, for which the self-cleavage turned out to be 0.31. The value for A23U U24G was 0.251; that for C20A G36C was 0.313. On to U13A G36U, for which the self-cleavage worked out at 0.713. Regarding G22C A26G, the self-cleavage was 0.253. Regarding U13A G35C, the self-cleavage was 0.799. The value for G18U A26C was 0.328; that for U7A U24G was 0.882; that for C15G A44G was 0.834. The same measure for G25A A42C: 0.262; for A6C G45C: 0.433. The same measure for U12G U13C: 0.879; for C16G G22U: 0.334. As to A1G A44C, the self-cleavage was found to be 0.858. For C30A A34G, the self-cleavage worked out at 0.628. Consider A40G, for which the self-cleavage amounted to 0.4. The value for G4A U24C was 0.59.

Regarding A1C C43G, the self-cleavage turned out to be 0.285. As for G5C A44U, the self-cleavage was determined as 0.358. Turning to G4C G27U, the self-cleavage amounted to 0.326. The value for C3A A40C was 0.324. For the variant C20U G27C, the self-cleavage was 0.409.

As to C29U U32G, the self-cleavage was 1.06.

Take U12A C43U: the self-cleavage came out at 0.392.
